# Laboratory results published in the supplement of paper PMC9112550, “Optimization of the antimicrobial peptide Bac7 by deep mutational scanning” (BMC Biology, 2022).
# System: Escherichia coli TOP10
# Assay: shrunken log2 fold change of peptide-encoding DNA abundance (4.5 h post-induction vs induction); higher = less antimicrobial activity (less host growth inhibition)
# Settings: time post-induction: 4.5 h; library: site-saturation at positions 5, 18, 19, 20
# 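Note: peptides expressed intracellularly from a pBAD plasmid library in pooled LB shake-flask culture, induced with 0.3% L-arabinose, DNA abundance read by NGS, three biological replicates, DESeq2 with apeglm shrinkage.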
row,Sequence,shrunken log2 fold change
1,RRIRGRPPRLPRPRPRPPHAPRP,1.37
2,RRIRLRPPRLPRPRPRPWMWPRP,0.154
3,RRIRCRPPRLPRPRPRPGSHPRP,-0.0784
4,RRIRMRPPRLPRPRPRPHYWPRP,-0.121
5,RRIRCRPPRLPRPRPRPEVTPRP,-0.0149
6,RRIRPRPPRLPRPRPRPFKGPRP,-0.209
7,RRIRLRPPRLPRPRPRPLMCPRP,-0.422
8,RRIRFRPPRLPRPRPRPKNTPRP,-0.487
9,RRIRNRPPRLPRPRPRPIGMPRP,-0.0748
10,RRIRSRPPRLPRPRPRPRCAPRP,0.509
11,RRIRGRPPRLPRPRPRPCLCPRP,0.655
12,RRIRLRPPRLPRPRPRPWVEPRP,-0.186
13,RRIRNRPPRLPRPRPRPFDYPRP,-0.262
14,RRIRLRPPRLPRPRPRPVWIPRP,0.0148
15,RRIRERPPRLPRPRPRPWERPRP,0.0496
16,RRIRFRPPRLPRPRPRPGAWPRP,-0.15
17,RRIRCRPPRLPRPRPRPNVAPRP,0.0221
18,RRIRERPPRLPRPRPRPIHLPRP,-0.0986
19,RRIRPRPPRLPRPRPRPPQRPRP,0.43
20,RRIRPRPPRLPRPRPRPVHNPRP,-0.038
21,RRIRQRPPRLPRPRPRPWIPPRP,0.0265
22,RRIRVRPPRLPRPRPRPDNAPRP,-0.501
23,RRIRRRPPRLPRPRPRPQMEPRP,0.0751
24,RRIRDRPPRLPRPRPRPWHYPRP,-0.225
25,RRIRFRPPRLPRPRPRPQQIPRP,-0.54

row,Sequence,shrunken log2 fold change
1,RRIRVRPPRLPRPRPRPMPNPRP,-0.116
2,RRIRARPPRLPRPRPRPRPVPRP,0.771
3,RRIRERPPRLPRPRPRPQDVPRP,-0.177
4,RRIRTRPPRLPRPRPRPTCNPRP,-0.533
5,RRIRTRPPRLPRPRPRPHVWPRP,0.272
6,RRIRQRPPRLPRPRPRPIGKPRP,0.0819
7,RRIRSRPPRLPRPRPRPMQEPRP,0.169
8,RRIRLRPPRLPRPRPRPCHAPRP,-0.235
9,RRIRFRPPRLPRPRPRPHAEPRP,-0.00295
10,RRIRCRPPRLPRPRPRPLLHPRP,-0.319
11,RRIRARPPRLPRPRPRPREPPRP,0.199
12,RRIRRRPPRLPRPRPRPHGTPRP,0.00291
13,RRIRYRPPRLPRPRPRPFGWPRP,0.102
14,RRIRYRPPRLPRPRPRPERCPRP,-0.12
15,RRIRQRPPRLPRPRPRPDINPRP,-0.412
16,RRIRHRPPRLPRPRPRPPMYPRP,-0.739
17,RRIRERPPRLPRPRPRPRAWPRP,0.195
18,RRIRRRPPRLPRPRPRPSHWPRP,0.183
19,RRIRRRPPRLPRPRPRPMQVPRP,-0.198
20,RRIRQRPPRLPRPRPRPKWKPRP,-0.0193
21,RRIRYRPPRLPRPRPRPYKAPRP,0.019
22,RRIRVRPPRLPRPRPRPARCPRP,0.205
23,RRIRVRPPRLPRPRPRPHSTPRP,-0.418
24,RRIRNRPPRLPRPRPRPCKMPRP,-0.00674
25,RRIRHRPPRLPRPRPRPNERPRP,0.0404

row,Sequence,shrunken log2 fold change
1,RRIRHRPPRLPRPRPRPGCIPRP,-1.21
2,RRIRRRPPRLPRPRPRPRMSPRP,0.938
3,RRIRQRPPRLPRPRPRPNRLPRP,0.0179
4,RRIRARPPRLPRPRPRPESPPRP,0.145
5,RRIRIRPPRLPRPRPRPYVSPRP,-0.518
6,RRIRIRPPRLPRPRPRPATTPRP,-0.145
7,RRIRRRPPRLPRPRPRPRTTPRP,0.406
8,RRIRVRPPRLPRPRPRPSQPPRP,-0.112
9,RRIRKRPPRLPRPRPRPPHFPRP,0.519
10,RRIRERPPRLPRPRPRPQPMPRP,-0.185
11,RRIRSRPPRLPRPRPRPQMDPRP,-0.0665
12,RRIRPRPPRLPRPRPRPWRIPRP,-0.0585
13,RRIRLRPPRLPRPRPRPRYTPRP,-0.0696
14,RRIRERPPRLPRPRPRPDHTPRP,-0.0309
15,RRIRWRPPRLPRPRPRPRQTPRP,0.0702
16,RRIRHRPPRLPRPRPRPDKNPRP,-0.496
17,RRIRSRPPRLPRPRPRPCTHPRP,-0.00194
18,RRIRVRPPRLPRPRPRPGLCPRP,0.0795
19,RRIRNRPPRLPRPRPRPILYPRP,-0.267
20,RRIRDRPPRLPRPRPRPQADPRP,0.103
21,RRIRFRPPRLPRPRPRPKLNPRP,-0.193
22,RRIRARPPRLPRPRPRPHTSPRP,-0.218
23,RRIRQRPPRLPRPRPRPDMRPRP,0.0308
24,RRIRTRPPRLPRPRPRPPDCPRP,0.0461
25,RRIRYRPPRLPRPRPRPIRWPRP,-0.114
